Data: US20070025992A1 (MOCHIDA PHARMACEUTICAL, published 2007)

T1: GPVI-Fc (fusion protein of the extracellular domain of human GPVI and the Fc fragment of human IgG1) (human, UniProt Q9HCN6 21-267)
T1 construct: extracellular domain; also called human soluble GPVI-Fc; GPVI-hFc; not shown: human IgG1 Fc domain from plasmid pM1304 (printed as '506 amino acids'), joined in frame through a BamHI site
T1 sequence (looked up): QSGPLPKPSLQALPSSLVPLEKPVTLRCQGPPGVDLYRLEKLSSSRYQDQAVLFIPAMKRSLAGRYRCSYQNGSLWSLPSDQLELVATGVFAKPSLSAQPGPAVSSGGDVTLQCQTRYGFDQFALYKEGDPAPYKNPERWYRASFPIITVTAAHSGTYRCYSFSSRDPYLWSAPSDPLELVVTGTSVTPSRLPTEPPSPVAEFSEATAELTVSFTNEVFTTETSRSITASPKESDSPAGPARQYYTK

B1: #2-4 antibody (anti-GPVI monoclonal human antibody produced by hybridoma clone #2-4) (antibody, V domains shown)
VH: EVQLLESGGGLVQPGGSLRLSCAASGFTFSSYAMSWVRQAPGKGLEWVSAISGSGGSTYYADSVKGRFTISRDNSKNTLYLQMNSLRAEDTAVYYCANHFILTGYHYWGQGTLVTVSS
VL: QSVLTQPPSVSAAPGQKVTISCSGSSSNIGNNYVSWYQQLPGTAPKLLIYDNNKRPSGIPDRFSGSKSGTSATLGITGLQTGDEADYYCGTWDSSLSAGVFGGGTKLTVL
B2: #2-37 (antibody, V domains shown)
VH: EVQLVESGGGLVKPGGSLRLSCAASGFTFSDYYMSWIRQAPGKGLEWVSYITSSSSYTNYADSVKGRFTISRDNAKNSLYLQMNSLRAEDTAVYYCARDRAVRGVIIIRPPDYWGQGTLVTVSS
VL: QSALTQPASVSGSPGQSITISCTGTSSDVGGYNYVSWYQQHPGKAPKLMIYDVSNRPSGVSNRFSGSKSGNTASLTISGLQAEDEADYYCSSYTSSSTLVFGGGTKLTVL
notes: Human monoclonal antibody from a hybridoma; also called clone #2-37; #2-37 antibody

Legend:
[1] = target: T1, GPVI-Fc (fusion protein of the …); assay: SPR (BIACORE3000), GPVI-Fc immobilized on CM5 chip
[2] = target: T1, GPVI-Fc (fusion protein of the …); assay: ELISA on immobilized GPVI-Fc (0.25 µg/well), 20 ng purified antibody, peroxidase-labeled anti-human kappa or lambda antibody, absorbance at 450 nm
Procedure: GPVI binding activity of the purified antibody that was obtained in EXAMPLE 2 was assayed by the ELISA method that was described in EXAMPLE 2. As substitute for the culture supernatant of hybridoma in EXAMPLE 2, 20 ng of the purified anti-GPVI monoclonal human antibody prepared in EXAMPLE 2 was added, and as a control, purified human IgM (Cappel) was used.
Thus it was confirmed that the prepared antibody specifically recognizes GPVI.

Binder	Kd [1]	binding result [2]
B1	41.3 nM	
B2		binds
